Numbering of substitutions follows the chain as printed. Names may count otherwise. Values belong to the binder of their own block, whether it stands above or below them.
What was measured:
[1] = molecular target: T1, cynomolgus monkey FcγRIIIaS extracellular domain with C-terminal His-tag (cynomolgus monkey, UniProt A3RFZ7 21-206 (rhesus entry)); test: SPR (BIACORE); KD of SG1 / KD of variant
T1 construct: also called cyno FcgRIIIaS; cynoFcγRIIIaS; not shown: His-tag added to the C-terminus

[2] = molecular target: T2, human FcγRIIaH extracellular domain with C-terminal His-tag (human, UniProt P12318 34-217); test: SPR (BIACORE); KD of SG1 / KD of variant
T2 construct: also called human FcgRIIaH; FcγRIIa type H; not shown: His-tag added to the C-terminus
T2 sequence: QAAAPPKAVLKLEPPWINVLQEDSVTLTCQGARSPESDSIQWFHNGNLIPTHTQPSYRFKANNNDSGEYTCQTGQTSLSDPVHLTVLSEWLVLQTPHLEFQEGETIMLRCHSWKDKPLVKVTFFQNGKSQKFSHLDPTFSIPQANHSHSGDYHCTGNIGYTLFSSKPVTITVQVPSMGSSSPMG

[3] = molecular target: T3, human FcγRIIaR extracellular domain with C-terminal His-tag (human, UniProt P12318 34-217); test: SPR (BIACORE), antibody captured, FcgR analyte
T3 construct: also called human FcgRIIaR; FcγRIIa type R; not shown: His-tag added to the C-terminus
T3 chain: T2 sequence with H134R

[4] = molecular target: T1, cynomolgus monkey FcγRIIIaS …; test: SPR (BIACORE), antibody captured, FcgR analyte
[5] = molecular target: T4, human FcγRIIIaV extracellular domain with C-terminal His-tag (human, UniProt P08637 17-208); test: SPR (BIACORE), antibody captured, FcgR analyte
T4 construct: also called human FcgRIIIaV; not shown: His-tag added to the C-terminus

[6] = molecular target: T5, human FcγRIIb extracellular domain, His-tagged (human, UniProt P31994 43-217); test: SPR, 25C, antibody captured, FcγR as analyte
T5 construct: also called FcgRIIb (human)
T5 sequence: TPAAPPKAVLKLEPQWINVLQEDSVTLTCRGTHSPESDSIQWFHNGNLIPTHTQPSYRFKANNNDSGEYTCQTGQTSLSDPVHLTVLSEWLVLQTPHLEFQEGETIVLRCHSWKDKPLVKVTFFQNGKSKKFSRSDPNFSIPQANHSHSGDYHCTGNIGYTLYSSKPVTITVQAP
Procedure: (§1) The kinetic analysis of interactions between these antibodies and FcγR was carried out using BIACORE® T200 or BIACORE® 4000 (GE Healthcare). HBS-EP+ (GE Healthcare) was used as the running buffer, and the measurement temperature was set to 25° C. […] After the measurement, the antibody captured on the chip was washed off by allowing reaction with 10 mM glycine-HCl, pH1.5 and 25 mM NaOH so that the chip was regenerated and used repeatedly. The sensorgrams obtained as measurement results were analyzed by the 1:1 Langmuir binding model using the BIACORE® Evaluation Software to calculate the binding rate constant ka (L/mol/s) and dissociation rate constant kd (1/s), and the dissociation constant KD (mol/L) was calculated from these values. […] Regarding such interactions, KD values were calculated using the following 1:1 binding model described in BIACORE® T100 Software Handbook BR1006-48 Edition AE.

[7] = molecular target: T6, cynomolgus monkey FcγRIIIaS extracellular domain with C-terminal His-tag (cynomolgus monkey, UniProt Q8SPW2 21-206 at identity 1.00)); test: SPR (Biacore), antibody captured, FcgR analyte
T6 construct: also called cyno FcgRIIIaS; cynoFcγRIIIaS
T6 chain: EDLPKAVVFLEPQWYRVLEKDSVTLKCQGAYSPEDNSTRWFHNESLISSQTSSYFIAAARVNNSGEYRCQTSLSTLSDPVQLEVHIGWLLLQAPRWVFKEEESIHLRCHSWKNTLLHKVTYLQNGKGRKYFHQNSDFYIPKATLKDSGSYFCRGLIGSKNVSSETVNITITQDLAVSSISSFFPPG
Procedure: as §1

[8] = molecular target: T7, cynomolgus monkey FcγRIIa2 extracellular domain with C-terminal His-tag (cynomolgus monkey); test: SPR (BIACORE), antibody captured, FcgR analyte
T7 construct: also called cyno FcgRIIa2; cynoFcγRIIa2; not shown: His-tag added to the C-terminus
T7 chain: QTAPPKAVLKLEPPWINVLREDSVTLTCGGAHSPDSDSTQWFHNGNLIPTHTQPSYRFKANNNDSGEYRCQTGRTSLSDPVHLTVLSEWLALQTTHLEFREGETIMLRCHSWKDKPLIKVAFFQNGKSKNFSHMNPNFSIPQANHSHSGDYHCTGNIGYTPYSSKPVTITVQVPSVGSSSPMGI

[9] = molecular target: T8, human FcγRIIb extracellular domain with C-terminal His-tag (human, UniProt P31994 43-217); test: SPR (BIACORE), antibody captured, FcgR analyte
T8 construct: also called human FcgRIIb; not shown: His-tag added to the C-terminus
T8 sequence: T5 sequence

[10] = molecular target: T9, cynomolgus monkey FcγRIIa3 extracellular domain with C-terminal His-tag (cynomolgus monkey); test: SPR (BIACORE), antibody captured, FcgR analyte
T9 construct: also called cyno FcgRIIa3; cynoFcγRIIa3; not shown: His-tag added to the C-terminus
T9 chain: T7 chain with K127I, N130K, H133P, Q142R

[11] = molecular target: T10, cynomolgus monkey FcγRIIb extracellular domain with C-terminal His-tag (cynomolgus monkey); test: SPR (BIACORE), antibody captured, FcgR analyte
T10 construct: also called cyno FcgRIIb; cynoFcγRIIb; not shown: His-tag added to the C-terminus
T10 chain: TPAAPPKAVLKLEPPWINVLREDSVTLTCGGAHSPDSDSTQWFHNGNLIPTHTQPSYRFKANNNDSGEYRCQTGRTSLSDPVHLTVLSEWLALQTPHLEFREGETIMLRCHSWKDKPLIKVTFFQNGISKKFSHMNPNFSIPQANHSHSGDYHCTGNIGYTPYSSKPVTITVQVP

[12] = molecular target: T11, cynomolgus monkey FcγRIIa1 extracellular domain with C-terminal His-tag (cynomolgus monkey); test: SPR (BIACORE), antibody captured, FcgR analyte
T11 construct: also called cyno FcgRIIa1; cynoFcγRIIa1; not shown: His-tag added to the C-terminus
T11 chain: T7 chain with T95P, A121T, K127I, S128A, N130K, N135D, Q142R

[13] = molecular target: T12, cynomolgus monkey FcγRIIa3 extracellular domain with C-terminal His-tag (cynomolgus monkey); test: SPR (Biacore), KD of SG1 / KD of variant
T12 construct: also called cyno FcgRIIa3; cynoFcγRIIa3
T12 chain: T7 chain with K127I, N130K, H133P, Q142R

[14] = molecular target: T13, cynomolgus monkey FcγRIIa2 extracellular domain with C-terminal His-tag (cynomolgus monkey); test: SPR (Biacore), KD of SG1 / KD of variant
T13 construct: also called cyno FcgRIIa2; cynoFcγRIIa2
T13 chain: T7 chain

T4 sequence (P08637 17-208 F176V): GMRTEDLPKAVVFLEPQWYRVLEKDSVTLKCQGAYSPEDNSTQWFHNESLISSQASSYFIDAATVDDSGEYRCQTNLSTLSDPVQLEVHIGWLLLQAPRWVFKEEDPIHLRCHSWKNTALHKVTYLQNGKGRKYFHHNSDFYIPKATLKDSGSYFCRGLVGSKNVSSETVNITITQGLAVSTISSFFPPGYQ

KD fold (SG1 = 1) [1]: 0.36 fold
KD fold (SG1 = 1) [2]: 0.5 fold
Kd [3]: 1000 nM
Kd [4]: 1000 nM
Kd [5]: 7900 nM
B1: M103205H795-MY117/M103202L889-SK1 (antibody)
heavy: QVTLKESGPVLVKPTETLTLTCTVSGIDLSHDDISWVRQAPGKGLEWVGIISYAGSTYYASWAKGRLTISKDTSKNQVVLTMTNMDPVDTATYYCARGVPAYSHGGDLWGQGTLVTVSSASTKGPSVFPLAPSSKSTSGGTAALGCLVKDYFPEPVTVSWNSGALTSGVHTFPAVLQSSGLYSLSSVVTVPSSSLGTQTYICNVNHKPSNTKVDKKVEPKSCDKTHTCPPCPAPEWLNGPSVFLFPPKPKDTLMISRTPEVTCVVVDVAEEDPEVKFNWYVDGVEVHNAKTKPREEQYNSTYRVVSVLTVLHQDWLNGKEYKCKVSNKALPAPIEKTISKAKGQPREPQVYTLPPSREEMTKNQVSLTCLVKGFYPSDIAVEWESNGQPENNYKTTPMVLDSDGSFFLYSKLTVDKSRWQQGNVFSCSVMHEALHNHYTQKSLSLSP
light: DIVMTQSPATLSLSPGERATLSCTSSQSVYHANWLSWFQQKPGQPPKLLIYWASTLAYGVPSRFSGSGSGTDFTLTISSLQPEDAATYYCAGGYGGGRYAFGQGTKVEIKRTVAAPSVFIFPPSDEQLKSGTASVVCLLNNFYPREAKVQWKVDNALQSGNSQESVTEQDSKDSTYSLSSTLTLSKADYEKHKVYACEVTHQGLSSPVTKSFNRGEC
notes: Fc variant of MS1032LO06-SG1; EU numbering

fold enhanced affinity compared to SG1 [6]: 10 fold
B2: MS103240H795-SG1074/M103202L1045-SK1 (antibody, name in EU numbering)
heavy: QVQLVESGGGLVQPGGSLRLSCAVSGIDLSHDDISWVRQAPGKGLEWVSIISYAGSTYYASWAKGRLTISKDTSKNQVVLTMTNMDPVDTATYYCARGVPAYSHGGDLWGQGTLVTVSSASTKGPSVFPLAPSSKSTSGGTAALGCLVKDYFPEPVTVSWNSGALTSGVHTFPAVLQSSGLYSLSSVVTVPSSSLGTQTYICNVNHKPSNTKVDKKVEPKSCDKTHTCPPCPAPELLNGPSVFLFPPKPKDTLMISRTPEVTCVVVDVSDEDPEVKFNWYVDGVEVHNAKTKPREELYNSTYRVVSVLTVLHRDWLNGKEYKCKVSNTALPKPIEKTISKAKGQRREPQVYTLPPSREEMTKNQVSLTCLVKGFYPSDIAVEWESNGQPENNYKTTPPVLDSDGSFFLYSKLTVDKSRWQQGNVFSCSVLHEALHAHTTRKELSLSP
light: B1 light with S25T, A32E
notes: also called MS1032LO19-SG1074

Kd [7]: 1900 nM
B3: M103205H795-MY458/M103202L889-SK1 (antibody, human IgG1, kappa)
heavy: B1 heavy with P234Y, W236L, N238T, A269S, E270D, A332K, M398P
light: B1 light
notes: Substitutions in EU numbering on SG1

fold enhanced affinity compared to SG1 [6]: 10 fold
B4: MS103240H795-SG1080/M103202L1045-SK1 (antibody, name in EU numbering)
heavy: B2 heavy with L430M, T438Y
light: B1 light with S25T, A32E
notes: Built from the text: MY209 plus Q311R/P343R and N434A/Q438R/S440E; also called MS1032LO19-SG1080

Kd [8]: 580 nM
Kd [3]: 1300 nM
Kd [4]: 3000 nM
Kd [9]: 820 nM
Kd [5]: 48000 nM
B5: M103205H795-MY211/M103202L889-SK1 (antibody, human IgG1, kappa, name in EU numbering)
heavy: B1 heavy with W236L, S241V, A269S, E270D, K328T, A332K, M398P
light: B1 light
notes: Fc variant of MS1032LO06-SG1; positions in EU numbering

fold enhanced affinity compared to SG1 [6]: 10 fold
B6: MS103205H795-SG1012/M103202L889-SK1 (antibody, human IgG1, kappa)
heavy: B1 heavy with W236L, A269S, A332K, N436A
light: B1 light
notes: also called MS1032LO06-SG1012

fold enhanced affinity compared to SG1 [6]: 10 fold
B7: MS103205H795-SG1016/M103202L889-SK1 (antibody, human IgG1, kappa)
heavy: B1 heavy with W236L, A269S, Q313R, A332K, D401K, N436A
light: B1 light
notes: Built from the text: Q311R/D399K introduced into SG1012; also called MS1032LO06-SG1016

Kd [10]: 10000 nM
Kd [11]: 980 nM
Kd [8]: 2400 nM
Kd [3]: 2500 nM
Kd [4]: 3600 nM
Kd [12]: 1900 nM
Kd [9]: 1200 nM
Kd [5]: 9100 nM
B8: M103205H795-MY145/M103202L889-SK1 (antibody, human IgG1, kappa, name in EU numbering)
heavy: B1 heavy with W236L, A269S, P333E
light: B1 light
notes: as for B5

Kd [7]: 2800 nM
KD fold (SG1 = 1) [13]: 2.2 fold
KD fold (SG1 = 1) [14]: 1.8 fold
B9: M103205H795-MY454/M103202L889-SK1 (antibody, human IgG1, kappa)
heavy: B1 heavy with P234S, W236L, N238T, A269S, E270D, A332K, M398P
light: B1 light
notes: as for B3

Kd [8]: 330 nM
Kd [4]: 2700 nM
Kd [5]: 6900 nM
B10: M103205H795-MY198/M103202L889-SK1 (antibody, human IgG1, kappa, name in EU numbering)
heavy: B1 heavy with W236L, S241V, A269S, E270D, A332K
light: B1 light
notes: as for B5

From patent US20250076311A1 (Chugai, published 2025)
